Data published in the supplement of paper PMC7877785.
± gives the uncertainty stated by the source.

Test: self-splicing fitness, log relative to wild type (ln ratio); higher = more splicing; Tetrahymena group I intron in knt gene, E. coli kanamycin selection, DiMSum; sequences stand for … in CUCUCU…GGAGGGAAAAGUUAUCAGGCAUGCACCUGGUAGCUAGUCUUUAAACCAAUAGAUUGCAUCGGUUUAAAAGGCAAGACCGUCAAAUUGCGGGAAAGGGGUCAACAGCCGUUCAGUACCAAGUCUCAGGGGAAACUUUGAGAUGGCCUUGCAAAGGGUAUGGUAAUAAGCUGACGGACAUGGUCCUAACCACGCAGCCAAGUCCUAAGUCAACAGAUCUUCUGUUGAUAUGGAUGCAGUUCACAGACUAAAUGUCGGUCGGGGAAGAUGUAUUCUUCUCAUAAGAUAUAGUCGGACCUCUCCUUAAUGGGAGCUAGCGGAUGAAGUGAUGCAACACUGGAGCCGCUGGGAACUAAUUUGUAUGCGAAAGUAUAUUGAUUAGUUUUGGAGUACUCGUGGUCG
In short: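 Pooled colonies went to amplicon sequencing on an Illumina HiSeq 2500 after six replicate transformations. The plates were LB agar with 100 μg/mL carbenicillin, 50 μM IPTG and 0.2% rhamnose, with or without 25 μg/mL kanamycin, incubated overnight at 37°C or 30°C. The E. coli BL21(DE3) library had all eight P1ex-region intron nucleotides randomised, the intron placed in the knt kanamycin-resistance gene on pET-22b(+). DiMSum fitness is the error-weighted combination of replicate fold changes, kanamycin against none, normalised to wild type.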

Row | Sequence | self-splicing fitness (ln) (30 °C) | self-splicing fitness (ln) (37 °C)
1 | CAGCAGCAAUAUUACGCCUA | -0.345 ± 0.076 | 0.522 ± 0.094
2 | CAGCAGCAAUAUUACGCUGC | -3.06 ± 0.22 | -2.36 ± 0.2
3 | CAGCAGCAAUAUUACGGAUU | -3 ± 0.14 | -1.64 ± 0.13
4 | CAGCAGCAAUAUUACGGCAG | -0.983 ± 0.079 | -0.261 ± 0.11
5 | CAGCAGCAAUAUUACGGCCG | -0.67 ± 0.08 | -0.622 ± 0.12
6 | CAGCAGCAAUAUUACGGCGU | -1.61 ± 0.07 | -0.859 ± 0.08
7 | CAGCAGCAAUAUUACGGCUA | -0.235 ± 0.088 | 0.311 ± 0.13
8 | CAGCAGCAAUAUUACGGCUC | -0.127 ± 0.081 | -0.486 ± 0.099
9 | CAGCAGCAAUAUUACGGGUA | -3.24 ± 0.19 | -1.73 ± 0.13
10 | CAGCAGCAAUAUUACGGUAU | -3.51 ± 0.15 | -2.62 ± 0.13
11 | CAGCAGCAAUAUUACGGUUG | -3.04 ± 0.11 | -2.62 ± 0.23
12 | CAGCAGCAAUAUUACGUAAA | -3.26 ± 0.14 | -1.95 ± 0.15
13 | CAGCAGCAAUAUUACGUAUA | -2.42 ± 0.18 | -2.81 ± 0.29
14 | CAGCAGCAAUAUUACGUGGU | -3.99 ± 0.19 | -2.93 ± 0.18
15 | CAGCAGCAAUAUUACGUUCG | -0.171 ± 0.056 | 0.0532 ± 0.076
16 | CAGGAGCAAUAUUACGACCU | -1.36 ± 0.13 | -0.563 ± 0.17
17 | CAGGAGCAAUAUUACGAGAA |  | -0.522 ± 0.22
18 | CAGGAGCAAUAUUACGAUAG | -1.19 ± 0.12 | -0.223 ± 0.13
19 | CAGGAGCAAUAUUACGAUCG | -0.865 ± 0.08 | 0.258 ± 0.1
20 | CAGGAGCAAUAUUACGAUGG | -0.317 ± 0.091 | 0.171 ± 0.13
21 | CAGGAGCAAUAUUACGAUUU | -3.81 ± 0.28 | -0.961 ± 0.13
22 | CAGGAGCAAUAUUACGCACA | -2.48 ± 0.24 | -1.88 ± 0.23
23 | CAGGAGCAAUAUUACGCAUG | -3.78 ± 0.28 | -1.89 ± 0.2
24 | CAGGAGCAAUAUUACGCCAU | -2.73 ± 0.33 | -1.55 ± 0.41
25 | CAGGAGCAAUAUUACGCCGG |  | -2.22 ± 0.24

Row | Sequence | self-splicing fitness (ln) (30 °C) | self-splicing fitness (ln) (37 °C)
26 | CAGGAGCAAUAUUACGCGGG | -0.771 ± 0.15 | -1.84 ± 0.14
27 | CAGGAGCAAUAUUACGGAAG | -2.2 ± 0.13 | -1.67 ± 0.14
28 | CAGGAGCAAUAUUACGGACU | -1.86 ± 0.14 | -1.75 ± 0.3
29 | CAGGAGCAAUAUUACGGAUA |  | -0.862 ± 0.41
30 | CAGGAGCAAUAUUACGGCCA |  | 0.122 ± 0.3
31 | CAGGAGCAAUAUUACGGUAA |  | -2.51 ± 0.44
32 | CAGGAGCAAUAUUACGGUAG | -0.725 ± 0.12 | -0.902 ± 0.13
33 | CAGGAGCAAUAUUACGGUGC | -2.68 ± 0.26 | -1.76 ± 0.28
34 | CAGGAGCAAUAUUACGUAAG | -0.111 ± 0.097 | 0.23 ± 0.12
35 | CAGGAGCAAUAUUACGUACA | -2.55 ± 0.49 | -1.73 ± 0.42
36 | CAGGAGCAAUAUUACGUCGU |  | -1.97 ± 0.37
37 | CAGGAGCAAUAUUACGUUAA | -3.28 ± 0.43 | -2.66 ± 0.26
38 | CAGGAGCAAUAUUACGUUAG | -1.45 ± 0.084 | -0.918 ± 0.12
39 | CAGGAGCAAUAUUACGUUCA | -2.89 ± 0.12 | -3.54 ± 0.2
40 | CAGUAGCAAUAUUACGAACU | -1.4 ± 0.22 | -1.05 ± 0.17
41 | CAGUAGCAAUAUUACGACAC | -2.36 ± 0.22 | -1.28 ± 0.23
42 | CAGUAGCAAUAUUACGACAG | -0.798 ± 0.093 | -0.214 ± 0.12
43 | CAGUAGCAAUAUUACGACGG | -0.119 ± 0.085 | 0.411 ± 0.11
44 | CAGUAGCAAUAUUACGAGCG | -0.475 ± 0.087 | 0.263 ± 0.12
45 | CAGUAGCAAUAUUACGAGGG | -2.85 ± 0.13 | -4.18 ± 0.46
46 | CAGUAGCAAUAUUACGAUAC | -3.55 ± 0.36 | -2.51 ± 0.41
47 | CAGUAGCAAUAUUACGAUCG | 0.0663 ± 0.15 | 0.475 ± 0.17
48 | CAGUAGCAAUAUUACGCCAU | -0.742 ± 0.18 | -2.87 ± 0.47
49 | CAGUAGCAAUAUUACGCCUA | -0.488 ± 0.14 | -0.218 ± 0.15
50 | CAGUAGCAAUAUUACGCGAA | -4.22 ± 0.43 | -2.8 ± 0.31

Row | Sequence | self-splicing fitness (ln) (30 °C) | self-splicing fitness (ln) (37 °C)
51 | CAGUAGCAAUAUUACGCGUC | -4.24 ± 0.31 | -2.83 ± 0.24
52 | CAGUAGCAAUAUUACGGACC | -2.15 ± 0.36 | 
53 | CAGUAGCAAUAUUACGGCAA | -3.53 ± 0.39 | -1.86 ± 0.27
54 | CAGUAGCAAUAUUACGGGCA | -3.05 ± 0.27 | -2.35 ± 0.25
55 | CAGUAGCAAUAUUACGGGCC | -2.57 ± 0.31 | -2.19 ± 0.3
56 | CAGUAGCAAUAUUACGGUAU | -3.79 ± 0.27 | -3.02 ± 0.28
57 | CAGUAGCAAUAUUACGGUCU | -3.35 ± 0.15 | -1.89 ± 0.14
58 | CAGUAGCAAUAUUACGGUUG | -1.52 ± 0.065 | -0.838 ± 0.083
59 | CAGUAGCAAUAUUACGUAAC |  | -0.919 ± 0.33
60 | CAGUAGCAAUAUUACGUUAG | -1.32 ± 0.072 | 0.119 ± 0.096
61 | CAGUAGCAAUAUUACGUUCU |  | -1.41 ± 0.2
62 | CAUAAGCAAUAUUACGAACU | -2.47 ± 0.23 | -2.69 ± 0.29
63 | CAUAAGCAAUAUUACGCGUA | -1.76 ± 0.11 | -2.02 ± 0.16
64 | CAUAAGCAAUAUUACGGACC | -3.27 ± 0.31 | -3.87 ± 0.23
65 | CAUAAGCAAUAUUACGGGUU | -3.37 ± 0.21 | -3.73 ± 0.24
66 | CAUAAGCAAUAUUACGGUGG | -1.24 ± 0.075 | -0.683 ± 0.088
67 | CAUAAGCAAUAUUACGGUGU | -3.84 ± 0.15 | -2.38 ± 0.14
68 | CAUAAGCAAUAUUACGUGAU | -3.26 ± 0.16 | -2.41 ± 0.16
69 | CAUAAGCAAUAUUACGUUGC | -4.07 ± 0.3 | -3.3 ± 0.3
70 | CAUAAGCAAUAUUACGUUUU | -4.55 ± 0.22 | -2.54 ± 0.15
71 | CAUCAGCAAUAUUACGAAUU | -1.2 ± 0.11 | -1.55 ± 0.14
72 | CAUCAGCAAUAUUACGAGGG | -2.04 ± 0.13 | -0.928 ± 0.12
73 | CAUCAGCAAUAUUACGAUGU | -3.52 ± 0.15 | -2.58 ± 0.15
74 | CAUCAGCAAUAUUACGCACU | -1.99 ± 0.092 | -1.17 ± 0.098
75 | CAUCAGCAAUAUUACGCAUA | -1.59 ± 0.089 | -0.647 ± 0.1

Row | Sequence | self-splicing fitness (ln) (30 °C) | self-splicing fitness (ln) (37 °C)
76 | CAUCAGCAAUAUUACGCCCC | -1.56 ± 0.21 | 
77 | CAUCAGCAAUAUUACGCCUA | -1.55 ± 0.1 | -1.03 ± 0.1
78 | CAUCAGCAAUAUUACGCGAC | -4.17 ± 0.29 | -2.92 ± 0.22
79 | CAUCAGCAAUAUUACGCGUA | -0.586 ± 0.089 | -0.774 ± 0.083
80 | CAUCAGCAAUAUUACGCUAU | -2.87 ± 0.13 | -2.64 ± 0.2
81 | CAUCAGCAAUAUUACGCUCC | -2.75 ± 0.24 | -2.3 ± 0.28
82 | CAUCAGCAAUAUUACGGACA | -0.235 ± 0.21 | -1.16 ± 0.15
83 | CAUCAGCAAUAUUACGGAGG | -1.24 ± 0.12 | -0.916 ± 0.14
84 | CAUCAGCAAUAUUACGGCUC | -1.91 ± 0.1 | -1.1 ± 0.12
85 | CAUCAGCAAUAUUACGGCUG | -1.76 ± 0.11 | -0.0705 ± 0.16
86 | CAUCAGCAAUAUUACGGGAC | -3.95 ± 0.46 | -2.51 ± 0.22
87 | CAUCAGCAAUAUUACGGUCG | 0.0182 ± 0.075 | 0.236 ± 0.093
88 | CAUCAGCAAUAUUACGGUUC | -2.65 ± 0.14 | -0.935 ± 0.13
89 | CAUCAGCAAUAUUACGGUUU | -2.29 ± 0.079 | -0.832 ± 0.094
90 | CAUCAGCAAUAUUACGUACU | -2.68 ± 0.18 | -1.65 ± 0.22
91 | CAUCAGCAAUAUUACGUCAA | -3.09 ± 0.15 | -2.38 ± 0.15
92 | CAUCAGCAAUAUUACGUCCU | -3.78 ± 0.22 | -1.91 ± 0.22
93 | CAUCAGCAAUAUUACGUCUU | -3.53 ± 0.14 | -2.19 ± 0.12
94 | CAUGAGCAAUAUUACGAAAA | -3.45 ± 0.34 | -1.22 ± 0.2
95 | CAUGAGCAAUAUUACGAACA |  | -2 ± 0.32
96 | CAUGAGCAAUAUUACGAAUC |  | -2.57 ± 0.42
97 | CAUGAGCAAUAUUACGACGC | -3.01 ± 0.23 | -1.99 ± 0.3
98 | CAUGAGCAAUAUUACGAGUC | -4.56 ± 0.28 | -3.27 ± 0.22
99 | CAUGAGCAAUAUUACGCAAC | -1.07 ± 0.29 | -1.69 ± 0.43
